Results from PMC11352241, “Detection of Hepatocellular Carcinoma in an Orthotopic Patient-Derived Xenograft with an Epithelial Cell Adhesion Molecule-Specific Peptide” (Cancers, 2024).
Blank lines part the entries; values can stand above or below the molecule they belong to. Residues, ends and D or L forms follow the SMILES beside them. No end group written: not given here. *: point of attachment. X2 = CC1(C)C(=CC=C2CCCC(C=CC3=[N+](CCCCS(=O)(=O)[O-])c4ccc(S(=O)(=O)O)cc4C3(C)C)=C2Oc2ccc(S(=O)(=O)O)cc2)N(CCCCCC(=O)NCCN2C(=O)CC(*)C2=O)c2ccc(S(=O)(=O)O)cc21; IRDye800 = IRDye800 near-infrared fluorophore

What was measured:
Serum stability = assay type: in vitro ADME; settings: 30 μM IRDye800-labeled peptide in mouse serum, 37 °C, 0, 0.5, 1.0, 1.5, 2, 3, 4 and 24 h, analytical RP-HPLC area under the peak; R^2 = 0.99; n = 6 mice in each group; read-out: half-life T1/2 in mouse serum (converted)
Description: IRDye800-labeled target peptide measuring 30 μM was incubated with mouse serum at time intervals ranging up to 24 h at 37 °C, and was monitored by analytical RP-HPLC. The relative peptide concentrations were determined by measuring the area under the peak (Waters, Breeze 2).

[1] = Peptide biodistribution in harvested organs; assay type: in vivo, mouse; settings: organs harvested 1.5 h post-injection, NIR fluorescence
Description: PDX-implanted mouse livers were exposed by making a small (1–2 cm) incision in the abdomen below the sternum. A custom laparoscope that collects white light and fluorescence images (λex = 785 nm) concurrently were used to image the liver region at 1.5 h post-injection via the tail vein [34]. IRDye800-labeled peptides, unlabeled peptide, and ICG were administrated as described above. Once imaging was completed, major organs, including the heart, spleen, lung, liver, brain, stomach, kidney, and intestine, were collected and imaged with white light and fluorescence to evaluate peptide biodistribution.

[2] = Animal necropsy for acute toxicity; assay type: in vivo, mouse; settings: healthy mice, 48 h post-injection, 300 μM, 200 μL PBS; heart, liver, spleen, lung, kidney, stomach, intestine, brain
Description: Healthy mice were euthanized at 48 h post-injection with the IRDye800-labeled target peptide (300 μM, 200 μL PBS). Major organs, including liver, kidney, heart, lung, spleen, stomach, intestine, and brain, were resected and submitted for pathological evaluation to assess for acute toxicity.

[3] = test system: human HCC patient-derived xenograft (PDX) tumors; experiment: In vivo whole-body NIR fluorescence imaging, orthotopic HCC PDX
Description: Orthotopic HCC mice were used for imaging ~3–4 weeks post-implantation.
IRDye800-labeled target and control peptides (300 μM, 200 μL PBS), unlabeled target peptide (block, 1.5 mM, 100 μL), and ICG (2.46 mg/kg) were injected in tumor-bearing animals using the tail vein. Unlabeled target peptide was injected 30 min prior to the IRDye800-labeled target peptide to compete for binding. The Pearl Trilogy (LI-COR Biosciences) was used to collect whole-body NIR fluorescence images over a time frame of 24 h post-injection.

tumors = settings: ICG, EPR effect; cited from earlier work
Excerpt: An IRDye800-labeled chimeric monoclonal antibody 323/A3 was used to detect a broad range of tumors found clinically. Cell-derived xenograft colon, breast, head and neck, and peritoneal carcinomatosis tumors were implanted orthotopically. Tumor nodules with millimeter dimensions were detected with NIR fluorescence imaging that were not otherwise visible. […] Also, a 7-mer peptide YQ-S2 was labeled with the NIR fluorophore MPA [36]. The peptide was character ... || Image-guided surgery aims to remove all cancerous tissues, and thus requires an effective strategy to discriminate tumor cells from non-tumor cells. NIR fluorescence imaging can be used as an adjunct to conventional laparoscopy to assist the surgeon to identify small and missed lesions. The spectra of white light illumination and IRDye800 fluorescence are sufficiently separated so that both modalities can be used concurrently during surgery. ICG is FDA-approved, and this contrast agent is currently being used clinically to identify HCC in real time. The non-specific NIR dye gathers in t ...

EpCAM [4] = target: T1, EpCAM (Homo sapiens, UniProt P16422); experiment: Binding competition with unlabeled peptide on Hep3B cells; assay type: cell-based; settings: confocal microscopy
T1 construct: endogenous in cells; host or cells: Hep3B human hepatocellular carcinoma cells
T1 sequence (P16422 24-314): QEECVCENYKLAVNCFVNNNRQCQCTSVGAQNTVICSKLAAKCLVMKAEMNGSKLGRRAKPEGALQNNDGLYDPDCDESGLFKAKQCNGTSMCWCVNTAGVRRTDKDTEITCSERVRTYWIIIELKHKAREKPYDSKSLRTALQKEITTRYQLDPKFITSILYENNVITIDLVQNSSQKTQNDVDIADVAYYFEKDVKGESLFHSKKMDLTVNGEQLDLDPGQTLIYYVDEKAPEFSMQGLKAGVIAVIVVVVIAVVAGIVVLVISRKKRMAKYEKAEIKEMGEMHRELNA
Description: Unlabeled target and control peptide was added to IRDye800-labeled target peptides to compete for binding to EpCAM. Inverted confocal microscopy (Leica, Wetzlar, Germany, Stellaris 5) was used to acquire the NIR fluorescence images, and intensities were measured with custom MATLAB (Mathworks) software (Matlab version R2023a).

EpCAM [5] = settings: read-out: binding affinity kd; cited from earlier work
Excerpt: An IRDye800-labeled chimeric monoclonal antibody 323/A3 was used to detect a broad range of tumors found clinically. Cell-derived xenograft colon, breast, head and neck, and peritoneal carcinomatosis tumors were implanted orthotopically. Tumor nodules with millimeter dimensions were detected with NIR fluorescence imaging that were not otherwise visible. […] Also, a 7-mer peptide YQ-S2 was labeled with the NIR fluorophore MPA [36]. The peptide was character ...

HPD*-IRDye800 = target: T2, HPD*-IRDye800; experiment: Hep3B cell binding
T2 chain: HPDMFTRTHSHNGGGSC-IRDye800

Molecule: CSCC[C@H](NC(=O)[C@H](CC(=O)O)NC(=O)[C@@H]1CCCN1C(=O)[C@@H](N)Cc1c[nH]cn1)C(=O)N[C@@H](Cc1ccccc1)C(=O)N[C@H](C(=O)N[C@@H](CCCNC(=N)N)C(=O)N[C@H](C(=O)N[C@@H](Cc1c[nH]cn1)C(=O)N[C@@H](CO)C(=O)N[C@@H](Cc1c[nH]cn1)C(=O)N[C@@H](CC(N)=O)C(=O)NCC(=O)NCC(=O)NCC(=O)N[C@@H](CO)C(=O)N[C@@H](CSC1CC(=O)N(CCNC(=O)CCCCCN2C(=CC=C3CCCC(C=CC4=[N+](CCCCS(=O)(=O)[O-])c5ccc(S(=O)(=O)O)cc5C4(C)C)=C3Oc3ccc(S(=O)(=O)O)cc3)C(C)(C)c3cc(S(=O)(=O)O)ccc32)C1=O)C(N)=O)[C@@H](C)O)[C@@H](C)O (some centres unmarked) [HPD*-IRDye800] (H-HPDMFTRTHSHNGGGSC(X2)-NH2)
half-life at 30 μM (Serum stability): 2.6 h
uptake in kidney [1]: High uptake
acute toxicity on histopathology of major organs [2]: No signs of acute peptide toxicity
time of return of intensity to baseline ([3]; whole-body fluorescence images post-injection): ~ 24 h
time of peak uptake by HCC tumor post-injection ([3]; whole-body fluorescence, 300 μM, 200 μL PBS, tail vein, orthotopic HCC PDX in NSG mice, n = 6): 1.5 h

Molecule: CC1(C)C(/C=C/C=C/C=C/C=C2\N(CCCCS(=O)(=O)O)c3ccc4ccccc4c3C2(C)C)=[N+](CCCCS(=O)(=O)[O-])c2ccc3ccccc3c21 [ICG, indocyanine green, reference compound]
time of maximum tumor absorption post-injection (tumors): > 48 h
T/B ratio at peak uptake ([3]; whole-body imaging, 1.5 h post-injection, tail vein, labeled peptides 300 μM, 200 μL, block = unlabeled HPD* before HPD*-IRDye800, ICG 2.46 mg/kg, mean ± SD, n = 6): 1.26 ± 0.05

effect of unlabeled peptide on HPD*-IRDye800 fluorescence intensity (EpCAM [4]): decrease significantly
Molecule: HPDMFTRTHSHN [HPD*, unlabeled 12-mer EpCAM target peptide …]

effect of unlabeled peptide on HPD*-IRDye800 fluorescence intensity (EpCAM [4]): did not show an intensity reduction
Molecule: PFHDMHSNHTRT [PFH*, unlabeled scrambled control peptide …]

Molecule: SNFYMPL [7-mer EpCAM peptide used to label a pH-sensitive polymeric micelle encapsulating paclitaxel]
Kd (EpCAM [5]): 164 nM

Kd (HPD*-IRDye800): 67 nM
B1: EpCAM (protein)
chain: QEECVCENYKLAVNCFVNNNRQCQCTSVGAQNTVICSKLAAKCLVMKAEMNGSKLGRRAKPEGALQNNDGLYDPDCDESGLFKAKQCNGTSMCWCVNTAGVRRTDKDTEITCSERVRTYWIIIELKHKAREKPYDSKSLRTALQKEITTRYQLDPKFITSILYENNVITIDLVQNSSQKTQNDVDIADVAYYFEKDVKGESLFHSKKMDLTVNGEQLDLDPGQTLIYYVDEKAPEFSMQGLK
